The labels stand for the following.
T1: macaca GM-CSF (Macaca mulatta (identical in Macaca …, UniProt Q0MUT8 18-144 (Chlorocebus aethiops entry), limits assumed))
T1 chain: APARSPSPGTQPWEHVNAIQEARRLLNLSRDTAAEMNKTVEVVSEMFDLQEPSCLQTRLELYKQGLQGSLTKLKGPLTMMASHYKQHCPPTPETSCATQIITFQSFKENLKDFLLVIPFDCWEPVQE

B1: humanized parental 4K21 hVH hVL + H93Y (MS100305-A) (antibody, V domains shown)
VH: EVQLVESGGGLVQPGGSLRLSCAASGFAFSAYDMSWVRQAPGKRLELVAYISSGGSSFYYPDTVKGRFTISRDNAKNSLYLQMNSLRAEDTAVYYCTRHLGFDYWGQGTLVTVSS
VL: DIVMTQSPLSLPVTPGEPASISCRSSQSLVNSNGNTYLHWYLQKPGQSPQLLIYKVSNRFSGVPDRFSGSGSGTDFTLKISRVEAEDVGVYYCSQSTYVPPTFGQGTKVEIK
B2: MSB0010602 4K21 (4K21 hVH S55K-T62S hVL S27eY-N28I-H34S-N53R-H93Y) (antibody, V domains shown)
VH: B1 VH with S56K, T63S
VL: B1 VL with S32Y, N33I, H39S, N58R
notes: IgG
B3: MSB0010599 4K21 (4K21 hVH S55R-T62S hVL N28I-H34S-N53R-H93Y) (antibody, V domains shown)
VH: B1 VH with S56R, T63S
VL: B1 VL with N33I, H39S, N58R
notes: IgG
B4: MSB0010603 4K21 (4K21 hVH S56V-T62S hVL N28I-H34S-N53R-H93Y) (antibody, V domains shown)
VH: B1 VH with S57V, T63S
VL: B1 VL with N33I, H39S, N58R
notes: IgG
B5: MSB0010595 4K21 (4K21 hVH S56V-T62S hVL S27eY-N28I-H34S-N53R-H93Y) (antibody, V domains shown)
VH: B1 VH with S57V, T63S
VL: B1 VL with S32Y, N33I, H39S, N58R
B6: MSB0010600 4K21 (4K21 hVH S55R-T62S hVL S27eY-N28I-H34S-N53R-H93Y) (antibody, V domains shown)
VH: B1 VH with S56R, T63S
VL: B1 VL with S32Y, N33I, H39S, N58R

Where a chain is given by its changes, count along the chain named. In names and notes the source's numbering stands.

The target of the first test is T2, human GM-CSF I117 (human, UniProt P04141 18-144). The test can be described thus: cell-based or functional assay.
On to B1, for which the “Fold improvement of humanized parental 4K21 (IC50, TF-1 proliferation)” value was 2.3 fold and the “IC50, inhibition of GM-CSF induced TF-1 proliferation (32 pM GM-CSF)” value (shortened to “IC50, inhibition … (32 pM GM-CSF)”) came out at 42 pM.

Another test has as its target T1, macaca GM-CSF. The experiment in a line: cell-based or functional assay.
Turning to B1, the “Fold improvement of humanized parental 4K21 (IC50, TF-1 proliferation)” value was 5 fold; the “Fold macaca/human I117 (IC50, TF-1 proliferation)” value (“Fold macaca/human I117” for short) amounted to 2.6 fold; the “IC50, inhibition … (32 pM GM-CSF)” value amounted to 111 pM.

The next test addresses T3, human GM-CSF T117 (human, UniProt P04141 18-144). The test can be described thus: cell-based or functional assay.
B1: the “Fold human T117/I117 (IC50, TF-1 proliferation)” value (“Fold human T117/I117” for short) worked out at 3.7 fold; the “Fold improvement of humanized parental 4K21 (IC50, TF-1 proliferation)” value was 6 fold; the “IC50, inhibition … (32 pM GM-CSF)” value turned out to be 154 pM.

The next test addresses T2, human GM-CSF I117. The test can be described thus: cell-based or functional assay. The source holds these as a separate data set.
Turning to B2, the “IC50, inhibition of GM-CSF induced IL-8 secretion in U937 cells (65 pM GM-CSF)” value (shortened to “IC50, inhibition … (65 pM GM-CSF)”) was found to be 267 pM.

In the next test the target is T1, macaca GM-CSF. The experiment in a line: cell-based or functional assay. The source holds these as a separate data set.
Turning to B2, the “IC50, inhibition … (65 pM GM-CSF)” value was 232 pM.

The next test deals with T3, human GM-CSF T117. The experiment in a line: cell-based or functional assay. The source holds these as a separate data set.
Turning to B2, the “IC50, inhibition … (65 pM GM-CSF)” value worked out at 177 pM.

Another test has as its target T4, human GM-CSF A117 mutant (human, UniProt P04141 18-144).
T4 construct: also called hGM-CSF A117; A117 protein
The test can be described thus: competition ELISA: antibody on coated wild-type human GM-CSF, competitor soluble human GM-CSF A117; single condition, competitor concentration not shown. For orientation: In an ELISA, binding on a coated surface is turned into a signal by an enzyme label.
On to B3, for which the binding result is reported as “binds”.

Turning to B2, the binding result is reported as “binds”.

For B4, the binding result is “binds”.

The target of another test is T2, human GM-CSF I117. The experiment in a line: cell-based or functional assay. The source holds these as a separate data set.
Target sequence in this assay (P04141 18-144 limits assumed): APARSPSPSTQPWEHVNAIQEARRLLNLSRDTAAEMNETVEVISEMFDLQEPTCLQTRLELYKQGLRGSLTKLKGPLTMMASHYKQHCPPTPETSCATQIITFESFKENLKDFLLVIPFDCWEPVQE
For the molecule B3, the “Fold improvement of 4K21 H93Y alone on I117 (IC50, TF-1 proliferation)” value stood at 1.6 fold; the “Fold improvement of humanized parental 4K21 on I117 (IC50, TF-1 proliferation)” value came out at 6.7 fold; the “IC50, inhibition … (32 pM GM-CSF)” value worked out at 18 pM.

Consider B5, for which the “Fold improvement of 4K21 H93Y alone on I117 (IC50, TF-1 proliferation)” value turned out to be 0.8 fold; the “Fold improvement of humanized parental 4K21 on I117 (IC50, TF-1 proliferation)” value amounted to 3.2 fold; the “IC50, inhibition … (32 pM GM-CSF)” value was determined as 37 pM.

Regarding B6, the “Fold improvement of 4K21 H93Y alone on I117 (IC50, TF-1 proliferation)” value was 0.9 fold; the “Fold improvement of humanized parental 4K21 on I117 (IC50, TF-1 proliferation)” value stood at 3.6 fold; the “IC50, inhibition … (32 pM GM-CSF)” value was 33 pM.

As for B1, the “Fold improvement of 4K21 H93Y alone on I117 (IC50, TF-1 proliferation)” value is 1 fold; the “Fold improvement of humanized parental 4K21 on I117 (IC50, TF-1 proliferation)” value is 4.1 fold; the “IC50, inhibition … (32 pM GM-CSF)” value turned out to be 30 pM.

As for B2, the “Fold improvement of 4K21 H93Y alone on I117 (IC50, TF-1 proliferation)” value came out at 1.5 fold; the “Fold improvement of humanized parental 4K21 on I117 (IC50, TF-1 proliferation)” value amounted to 6 fold; the “IC50, inhibition … (32 pM GM-CSF)” value turned out to be 20 pM.

Regarding B4, the “Fold improvement of 4K21 H93Y alone on I117 (IC50, TF-1 proliferation)” value was 0.8 fold; the “Fold improvement of humanized parental 4K21 on I117 (IC50, TF-1 proliferation)” value is 3.1 fold; the “IC50, inhibition … (32 pM GM-CSF)” value is 39 pM.

Another test has as its target T1, macaca GM-CSF. The experiment in a line: cell-based or functional assay. This is another data set of the same source.
B3: the “Fold improvement of 4K21 H93Y alone on macaca (IC50, TF-1 proliferation)” value was determined as 1.8 fold; the “Fold improvement of humanized parental 4K21 on macaca (IC50, TF-1 proliferation)” value was found to be 15 fold; the “Fold macaca/human I117” value amounted to 3 fold; the “IC50, inhibition … (32 pM GM-CSF)” value stood at 54 pM.

On to B5, for which the “Fold improvement of 4K21 H93Y alone on macaca (IC50, TF-1 proliferation)” value amounted to 2.2 fold; the “Fold improvement of humanized parental 4K21 on macaca (IC50, TF-1 proliferation)” value turned out to be 18 fold; the “Fold macaca/human I117” value was 1.2 fold; the “IC50, inhibition … (32 pM GM-CSF)” value came out at 44 pM.

On to B6, for which the “Fold improvement of 4K21 H93Y alone on macaca (IC50, TF-1 proliferation)” value came out at 2.6 fold; the “Fold improvement of humanized parental 4K21 on macaca (IC50, TF-1 proliferation)” value stood at 21 fold; the “Fold macaca/human I117” value came out at 1.1 fold; the “IC50, inhibition … (32 pM GM-CSF)” value is 37 pM.

As for B1, the “Fold improvement of 4K21 H93Y alone on macaca (IC50, TF-1 proliferation)” value came out at 1 fold; the “Fold improvement of humanized parental 4K21 on macaca (IC50, TF-1 proliferation)” value came to 8 fold; the “Fold macaca/human I117” value is 3.2 fold; the “IC50, inhibition … (32 pM GM-CSF)” value was 96 pM.

For B2, the “Fold improvement of 4K21 H93Y alone on macaca (IC50, TF-1 proliferation)” value is 4 fold; the “Fold improvement of humanized parental 4K21 on macaca (IC50, TF-1 proliferation)” value stood at 33 fold; the “Fold macaca/human I117” value came out at 1.2 fold; the “IC50, inhibition … (32 pM GM-CSF)” value is 24 pM.

In the case of B4, the “Fold improvement of 4K21 H93Y alone on macaca (IC50, TF-1 proliferation)” value is 1.2 fold; the “Fold improvement of humanized parental 4K21 on macaca (IC50, TF-1 proliferation)” value worked out at 10 fold; the “Fold macaca/human I117” value was determined as 2.1 fold; the “IC50, inhibition … (32 pM GM-CSF)” value is 82 pM.

Another test has as its target T3, human GM-CSF T117. The experiment in a line: cell-based or functional assay. This is another data set of the same source.
Target sequence in this assay (P04141 18-144 I117T limits assumed): as the sequence (P04141 18-144 limits assumed) above, with I100T counted along it
As for B3, the “Fold human T117/I117” value was 1 fold; the “Fold improvement of 4K21 H93Y alone on T117 (IC50, TF-1 proliferation)” value is 9.5 fold; the “Fold improvement of humanized parental 4K21 on T117 (IC50, TF-1 proliferation)” value stood at 77 fold; the “IC50, inhibition … (32 pM GM-CSF)” value is 18 pM.

For the molecule B5, the “Fold human T117/I117” value turned out to be 1.2 fold; the “Fold improvement of 4K21 H93Y alone on T117 (IC50, TF-1 proliferation)” value is 3.7 fold; the “Fold improvement of humanized parental 4K21 on T117 (IC50, TF-1 proliferation)” value amounted to 30 fold; the “IC50, inhibition … (32 pM GM-CSF)” value is 46 pM.

As for B6, the “Fold human T117/I117” value turned out to be 1.4 fold; the “Fold improvement of 4K21 H93Y alone on T117 (IC50, TF-1 proliferation)” value turned out to be 3.6 fold; the “Fold improvement of humanized parental 4K21 on T117 (IC50, TF-1 proliferation)” value was 30 fold; the “IC50, inhibition … (32 pM GM-CSF)” value amounted to 47 pM.

Consider B1, for which the “Fold human T117/I117” value was 5.8 fold; the “Fold improvement of 4K21 H93Y alone on T117 (IC50, TF-1 proliferation)” value turned out to be 1 fold; the “Fold improvement of humanized parental 4K21 on T117 (IC50, TF-1 proliferation)” value worked out at 8 fold; the “IC50, inhibition … (32 pM GM-CSF)” value stood at 172 pM.

Consider B2, for which the “Fold human T117/I117” value amounted to 1.7 fold; the “Fold improvement of 4K21 H93Y alone on T117 (IC50, TF-1 proliferation)” value came to 5 fold; the “Fold improvement of humanized parental 4K21 on T117 (IC50, TF-1 proliferation)” value is 41 fold; the “IC50, inhibition … (32 pM GM-CSF)” value was 34 pM.

With B4, the “Fold human T117/I117” value is 0.9 fold; the “Fold improvement of 4K21 H93Y alone on T117 (IC50, TF-1 proliferation)” value is 5.1 fold; the “Fold improvement of humanized parental 4K21 on T117 (IC50, TF-1 proliferation)” value came out at 42 fold; the “IC50, inhibition … (32 pM GM-CSF)” value is 34 pM.

Values taken from patent US20140065163A1 (MERCK SERONO S A, published 2014).
